Biological target: recombinant human BMP6 (human) (UniProt P22004)
Assay: cell-based or functional assay

Chain of UniProt P22004 (P22004 382-513 limits assumed): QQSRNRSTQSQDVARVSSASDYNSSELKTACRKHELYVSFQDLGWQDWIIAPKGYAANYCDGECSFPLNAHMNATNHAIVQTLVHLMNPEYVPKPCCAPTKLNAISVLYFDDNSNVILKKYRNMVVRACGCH

## recombinant human Sclerostin (from UniProt Q9BQB4 24-213)
  BMP6-induced melanin content in human epidermal melanocytes (72 h): 15%

Source: patent US20110206625A1
